Laboratory results as given in US20220403041A1 (Sanofi, published 2022).

Legend:
soluble CD73 dimer [1] = biological target: T1, soluble CD73 dimer (human, UniProt P21589 27-549, limits assumed); assay: SPR, antibody captured on chip, CD73 in flow; biphasic fit, share by T0 intercept of the component with kd 2.46E-04 1/s
T1 construct: CD73 in the flow (SPR) or in solution (BLI binning); also called soluble human CD73
T1 sequence: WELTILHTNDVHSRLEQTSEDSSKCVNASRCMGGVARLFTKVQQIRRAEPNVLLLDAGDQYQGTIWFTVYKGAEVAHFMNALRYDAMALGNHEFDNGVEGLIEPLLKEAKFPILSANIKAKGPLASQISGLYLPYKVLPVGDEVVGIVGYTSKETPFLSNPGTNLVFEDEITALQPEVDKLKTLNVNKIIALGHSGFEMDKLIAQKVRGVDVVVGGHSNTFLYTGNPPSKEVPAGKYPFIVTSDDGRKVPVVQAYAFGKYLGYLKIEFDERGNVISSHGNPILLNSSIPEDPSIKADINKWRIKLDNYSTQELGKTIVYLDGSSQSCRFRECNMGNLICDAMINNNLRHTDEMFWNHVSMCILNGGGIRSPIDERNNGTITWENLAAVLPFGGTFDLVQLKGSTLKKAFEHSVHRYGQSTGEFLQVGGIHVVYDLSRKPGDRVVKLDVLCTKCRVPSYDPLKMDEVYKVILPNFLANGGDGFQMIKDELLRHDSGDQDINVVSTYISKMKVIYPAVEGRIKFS

soluble CD73 dimer [2] = biological target: T1, soluble CD73 dimer; assay: SPR, antibody captured on Protein A chip, CD73 in flow; Langmuir ka with major component kd
soluble CD73 dimer [3] = biological target: T1, soluble CD73 dimer; assay: SPR, antibody captured on Protein A chip, CD73 in flow; biphasic fit, component of abundance 45%
[4] = biological target: T2, human CD73 on COR-L23 lung carcinoma cells (human) (UniProt P21589)
T2 sequence: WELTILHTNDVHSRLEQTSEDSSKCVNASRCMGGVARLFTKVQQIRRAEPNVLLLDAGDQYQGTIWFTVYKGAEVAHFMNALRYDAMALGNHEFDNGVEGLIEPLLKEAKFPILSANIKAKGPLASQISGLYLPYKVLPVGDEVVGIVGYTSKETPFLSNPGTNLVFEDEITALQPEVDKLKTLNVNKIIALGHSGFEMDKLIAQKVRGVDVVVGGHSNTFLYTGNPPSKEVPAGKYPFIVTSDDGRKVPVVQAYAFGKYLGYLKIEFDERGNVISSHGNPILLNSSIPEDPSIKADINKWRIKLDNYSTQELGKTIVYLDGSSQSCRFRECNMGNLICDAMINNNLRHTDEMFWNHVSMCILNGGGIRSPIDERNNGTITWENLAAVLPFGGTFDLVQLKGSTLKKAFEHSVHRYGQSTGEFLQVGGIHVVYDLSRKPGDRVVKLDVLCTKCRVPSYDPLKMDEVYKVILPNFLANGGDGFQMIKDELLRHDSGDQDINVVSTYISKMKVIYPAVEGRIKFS

soluble CD73 dimer [5] = biological target: T1, soluble CD73 dimer; assay: SPR, antibody captured on Protein A chip, CD73 in flow; Langmuir 1:1 fit
[6] = biological target: T2, human CD73 on COR-L23 lung carcinoma cells (human); assay: cell-based or functional assay
soluble CD73 dimer [7] = biological target: T1, soluble CD73 dimer; assay: SPR, antibody captured on chip, CD73 in flow; biphasic fit, share after 300 s binding phase of the component with ka 7.03E+05 1/Ms
soluble CD73 dimer [8] = biological target: T1, soluble CD73 dimer; assay: SPR, antibody captured on chip, CD73 in flow; biphasic fit, share after 300 s binding phase of the component with ka 5.31E+06 1/Ms
soluble CD73 dimer [9] = biological target: T1, soluble CD73 dimer; assay: SPR, antibody captured on Protein A chip, CD73 in flow; biphasic fit, component of abundance 55%
soluble CD73 dimer [10] = biological target: T1, soluble CD73 dimer; assay: SPR, antibody captured on Protein A chip, CD73 in flow; biphasic fit, component of abundance 100%
soluble CD73 dimer [11] = biological target: T1, soluble CD73 dimer; assay: SPR, antibody on the solid support, soluble CD73 dimer in solution
soluble CD73 dimer [12] = biological target: T1, soluble CD73 dimer; assay: SPR, antibody captured on Protein A chip, CD73 in flow; biphasic fit, component of abundance 70%
soluble CD73 dimer [13] = biological target: T1, soluble CD73 dimer; assay: SPR; KD from Langmuir ka and kd of the principal dissociation component
soluble CD73 dimer [14] = biological target: T1, soluble CD73 dimer; assay: SPR dissociation kinetics
soluble CD73 dimer [15] = biological target: T1, soluble CD73 dimer; assay: SPR, antibody captured on Protein A chip, CD73 in flow; biphasic fit, component of abundance 86%
soluble CD73 dimer [16] = biological target: T1, soluble CD73 dimer; assay: SPR, antibody captured on chip, CD73 in flow; biphasic fit, share by T0 intercept of the component with kd 7.86E-05 1/s
soluble CD73 dimer [17] = biological target: T1, soluble CD73 dimer; assay: SPR, antibody captured on Protein A chip, CD73 in flow; biphasic fit, component of abundance 14%
soluble CD73 dimer [18] = biological target: T1, soluble CD73 dimer; assay: SPR, antibody captured on chip, CD73 in flow; biphasic fit, share after 300 s binding phase of the component with ka 1.50E+06 1/Ms
soluble CD73 dimer [19] = biological target: T1, soluble CD73 dimer; assay: SPR, antibody captured on chip, CD73 in flow; biphasic fit, share after 300 s binding phase of the component with ka 3.24E+05 1/Ms
soluble CD73 dimer [20] = biological target: T1, soluble CD73 dimer; assay: SPR, antibody captured on Protein A chip, CD73 in flow; biphasic fit, component of abundance 30%
soluble CD73 dimer [21] = biological target: T1, soluble CD73 dimer; assay: SPR, antibody captured on chip, CD73 in flow; biphasic fit, share by T0 intercept of the component with kd 7.06E-03 1/s

B1: TB19/H7 (bispecific antibody, part only; not given: H7 arm; constant regions, V domains shown, part only)
VH: QEQLQESGPGLVKPSETLSLTCTVSGGSIRNNYYNWIRQPAGKGLEWIGRIYISGTTNSNPSLKSRVTMSIDTSKNQFSLKLSSVTAADTAIYYCAREHYVSGTSLDNWGQGTLVTVSS
VL: EIVMTQSPTTLSLSPGERATLSCRASQSVNTNYFSWYQQKPGLTPRLLIYGTSTRATGIPARFSGSGSGTDFTLTISSLQPEDFGIYYCQQDYNLPYTFGQGTYLEIK
Soluble CD73 dimer [1]
  abundance of dissociation component (biphasic fit): 100%
Soluble CD73 dimer [2]
  Kd: 0.328 nM
Soluble CD73 dimer [3]
  kon: 5.31e+06 M⁻¹ s⁻¹
[4]
  % inhibition of CD73 activity at 1 µg/ml antibody (COR-L23 cells, 4 h, LC/MS); cell TB19 x H7: 93%
Soluble CD73 dimer [5]
  koff: 0.000149 s⁻¹
  kon: 752000 M⁻¹ s⁻¹
[6]
  EC50 (nM) of inhibition of CD73 activity (adenosine by LC/MS): 0.27 nM
  Max Inhib. (projected maximal inhibition at saturating antibody): 95%
Soluble CD73 dimer [7]
  abundance of association component (biphasic fit): 55%
Soluble CD73 dimer [8]
  abundance of association component (biphasic fit): 45%
Soluble CD73 dimer [9]
  kon: 703000 M⁻¹ s⁻¹
Soluble CD73 dimer [10]
  koff: 0.000246 s⁻¹

B2: CL25/TB19 (bispecific antibody, part only; not given: CL25 arm; constant regions, V domains shown, part only)
VH: QEQLQESGPGLVKPSETLSLTCTVSGGSIRNNYYNWIRQPAGKGLEWIGRIYISGTTNSNPSLKSRVTMSIDTSKNQFSLKLSSVTAADTAIYYCAREHYVSGTSLDNWGQGTLVTVSS
VL: EIVMTQSPTTLSLSPGERATLSCRASQSVNTNYFSWYQQKPGLTPRLLIYGTSTRATGIPARFSGSGSGTDFTLTISSLQPEDFGIYYCQQDYNLPYTFGQGTYLEIK
Soluble CD73 dimer [11]
  fold lower KD than either parental antibody: 15 fold
Soluble CD73 dimer [12]
  kon: 324000 M⁻¹ s⁻¹
Soluble CD73 dimer [13]
  fold increase of apparent affinity (KD) over either monovalent parental antibody: 26 fold
Soluble CD73 dimer [14]
  fold more stable (kd of the principal component) than with either monovalent parental: 8.8 fold
Soluble CD73 dimer [15]
  koff: 7.86e-05 s⁻¹
Soluble CD73 dimer [16]
  abundance of dissociation component (biphasic fit): 86%
Soluble CD73 dimer [2]
  Kd: 0.16 nM
Soluble CD73 dimer [17]
  koff: 0.00706 s⁻¹
Soluble CD73 dimer [18]
  abundance of association component (biphasic fit): 30%
Soluble CD73 dimer [5]
  koff: 0.00013 s⁻¹
  kon: 493000 M⁻¹ s⁻¹
Soluble CD73 dimer [19]
  abundance of association component (biphasic fit): 70%
[6]
  EC50 (nM) of inhibition of CD73 activity (adenosine by LC/MS): 0.619 nM
  Max Inhib. (projected maximal inhibition at saturating antibody): 97%
Soluble CD73 dimer [20]
  kon: 1.5e+06 M⁻¹ s⁻¹
Soluble CD73 dimer [21]
  abundance of dissociation component (biphasic fit): 14%
